These results are taken from patent publication US20050282743A1, “Molecular interactions in cells” (Arbor Vita Corporation, priority 2001, published 2005).

Common to all, as to test: G' assay (10 uM PL peptide), results of TABLE 7 and TABLE 12
Holding throughout (format): binding

Experiment [1] has as its target T1, PDZ protein (GST-PDZ fusion) (Homo sapiens, UniProt O15018).
T1 construct: made in house; host or cells: E. coli (DH5alpha, BL21 or JM109)
The settings on record: PDZ AIPC, PDZ Domain 1. A digest of the protocol:
(§1)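 Biotin-PL peptide (N-term label), 10 uM vs GST-PDZ; protein 5 ug/ml by default. A450 nm binned: 1 = 0-1, 2 = 1-2, 3 = 2-3, 4 = 3-4, 5 = >4 on >2 repeats, 0 = no binding.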

Experiment [2] has as its target T2, PDZ protein (GST-PDZ fusion) (Homo sapiens, UniProt O15085).
T2 construct: made in house; host or cells: E. coli (DH5alpha, BL21 or JM109)
The note with it: PDZ KIAA0380, PDZ Domain 1. In short, it runs like this: as §1

The target of experiment [3] is T3, PDZ protein (GST-PDZ fusion) (Homo sapiens, UniProt Q02410).
T3 construct: made in house; host or cells: E. coli (DH5alpha, BL21 or JM109)
T3 sequence (Q02410 1-837): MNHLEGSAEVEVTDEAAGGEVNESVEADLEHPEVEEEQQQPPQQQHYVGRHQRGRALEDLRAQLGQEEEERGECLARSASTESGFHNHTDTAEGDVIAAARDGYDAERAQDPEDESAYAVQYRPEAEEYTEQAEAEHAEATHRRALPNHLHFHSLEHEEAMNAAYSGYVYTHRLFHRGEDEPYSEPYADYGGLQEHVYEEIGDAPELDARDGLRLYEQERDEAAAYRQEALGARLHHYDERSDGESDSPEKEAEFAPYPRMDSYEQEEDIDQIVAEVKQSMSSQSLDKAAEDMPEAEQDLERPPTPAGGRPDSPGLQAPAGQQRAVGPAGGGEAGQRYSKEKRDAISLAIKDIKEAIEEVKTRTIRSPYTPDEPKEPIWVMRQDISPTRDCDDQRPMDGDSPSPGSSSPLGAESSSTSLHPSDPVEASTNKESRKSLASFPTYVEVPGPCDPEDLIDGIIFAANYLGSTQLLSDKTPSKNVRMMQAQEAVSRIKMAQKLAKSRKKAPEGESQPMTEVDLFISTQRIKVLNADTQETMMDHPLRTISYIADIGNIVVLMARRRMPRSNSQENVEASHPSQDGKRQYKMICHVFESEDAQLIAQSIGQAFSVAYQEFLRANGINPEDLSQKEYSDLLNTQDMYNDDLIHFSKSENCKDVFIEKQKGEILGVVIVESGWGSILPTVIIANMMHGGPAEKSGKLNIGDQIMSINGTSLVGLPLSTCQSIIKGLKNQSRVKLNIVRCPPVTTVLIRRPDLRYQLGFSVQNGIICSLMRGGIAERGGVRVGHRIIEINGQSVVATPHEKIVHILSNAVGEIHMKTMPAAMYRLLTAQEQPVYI
A digest of the protocol:
as §1

Experiment [4] deals with T4, PDZ protein (GST-PDZ fusion) (Homo sapiens, UniProt Q13796).
T4 construct: made in house; host or cells: E. coli (DH5alpha, BL21 or JM109)
The settings on record: PDZ hAPXL, PDZ Domain 1. In short, it runs like this:
as §1

For experiment [5], the target named is T5, PDZ protein (GST-PDZ fusion) (Homo sapiens, UniProt Q6P0Q8).
T5 construct: made in house; host or cells: E. coli (DH5alpha, BL21 or JM109)
T5 sequence (Q6P0Q8 whole entry, the tested form may be a part): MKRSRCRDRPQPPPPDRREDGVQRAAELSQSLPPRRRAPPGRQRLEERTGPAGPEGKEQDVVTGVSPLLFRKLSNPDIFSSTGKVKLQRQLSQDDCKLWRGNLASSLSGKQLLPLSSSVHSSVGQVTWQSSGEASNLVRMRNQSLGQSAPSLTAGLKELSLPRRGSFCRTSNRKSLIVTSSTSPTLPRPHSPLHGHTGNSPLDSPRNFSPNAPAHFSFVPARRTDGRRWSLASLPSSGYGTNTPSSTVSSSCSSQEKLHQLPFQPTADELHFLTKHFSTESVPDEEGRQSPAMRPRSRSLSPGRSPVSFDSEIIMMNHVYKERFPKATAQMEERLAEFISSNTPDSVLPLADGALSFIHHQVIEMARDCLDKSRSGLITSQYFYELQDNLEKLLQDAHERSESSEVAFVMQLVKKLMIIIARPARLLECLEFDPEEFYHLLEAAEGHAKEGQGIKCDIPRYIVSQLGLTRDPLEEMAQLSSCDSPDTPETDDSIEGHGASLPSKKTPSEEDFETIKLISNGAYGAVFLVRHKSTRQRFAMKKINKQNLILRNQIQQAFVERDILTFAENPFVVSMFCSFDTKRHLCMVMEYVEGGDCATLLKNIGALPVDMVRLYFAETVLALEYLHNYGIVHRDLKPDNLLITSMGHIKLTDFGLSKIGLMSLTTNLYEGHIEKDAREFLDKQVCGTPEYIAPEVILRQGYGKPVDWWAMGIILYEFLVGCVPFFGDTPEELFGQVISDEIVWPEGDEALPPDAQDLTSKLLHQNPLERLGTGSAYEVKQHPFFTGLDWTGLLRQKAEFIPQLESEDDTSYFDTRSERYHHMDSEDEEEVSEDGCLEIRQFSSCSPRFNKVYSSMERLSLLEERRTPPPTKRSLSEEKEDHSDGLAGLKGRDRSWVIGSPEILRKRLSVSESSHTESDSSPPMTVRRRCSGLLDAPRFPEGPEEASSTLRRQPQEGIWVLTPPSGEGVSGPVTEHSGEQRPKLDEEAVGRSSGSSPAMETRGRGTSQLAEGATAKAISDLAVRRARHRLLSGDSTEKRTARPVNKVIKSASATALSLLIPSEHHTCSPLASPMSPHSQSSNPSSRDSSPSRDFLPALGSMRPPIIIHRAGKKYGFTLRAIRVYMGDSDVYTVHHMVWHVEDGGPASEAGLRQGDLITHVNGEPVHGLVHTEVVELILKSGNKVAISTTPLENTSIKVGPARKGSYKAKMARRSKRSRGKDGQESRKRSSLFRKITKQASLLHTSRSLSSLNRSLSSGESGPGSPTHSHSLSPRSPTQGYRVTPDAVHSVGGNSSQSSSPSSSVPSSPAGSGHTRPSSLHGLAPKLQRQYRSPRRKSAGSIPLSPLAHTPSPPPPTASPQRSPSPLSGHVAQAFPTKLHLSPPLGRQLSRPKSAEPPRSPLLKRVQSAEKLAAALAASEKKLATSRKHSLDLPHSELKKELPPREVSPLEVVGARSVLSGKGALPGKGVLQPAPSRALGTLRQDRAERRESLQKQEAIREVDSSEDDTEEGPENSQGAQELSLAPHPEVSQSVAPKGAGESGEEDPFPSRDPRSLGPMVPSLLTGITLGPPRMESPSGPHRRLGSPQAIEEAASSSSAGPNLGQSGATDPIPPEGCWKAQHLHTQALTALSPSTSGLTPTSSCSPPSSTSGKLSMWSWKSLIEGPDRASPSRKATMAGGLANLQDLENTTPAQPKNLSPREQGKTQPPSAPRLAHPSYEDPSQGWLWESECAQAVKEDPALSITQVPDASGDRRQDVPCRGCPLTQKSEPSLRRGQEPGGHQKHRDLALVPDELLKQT
A digest of the protocol: as §1

Experiment [6] deals with T6, PDZ protein (GST-PDZ fusion) (Homo sapiens, UniProt Q9Y2H9).
T6 construct: made in house; host or cells: E. coli (DH5alpha, BL21 or JM109)
The note with it: PDZ KIAA0973, PDZ Domain 1. In short, it runs like this: as §1

Experiment [7] concerns the target T7, PDZ protein (GST-PDZ fusion) (Homo sapiens, UniProt Q12959).
T7 construct: made in house; host or cells: E. coli (DH5alpha, BL21 or JM109)
The settings on record: PDZ DLG1, PDZ Domain 1, 2. In short, it runs like this: as §1

Experiment [8] has as its target T8, PDZ protein (GST-PDZ fusion) (Homo sapiens, UniProt Q5T2W1).
T8 construct: made in house; host or cells: E. coli (DH5alpha, BL21 or JM109)
T8 sequence (Q5T2W1 1-519): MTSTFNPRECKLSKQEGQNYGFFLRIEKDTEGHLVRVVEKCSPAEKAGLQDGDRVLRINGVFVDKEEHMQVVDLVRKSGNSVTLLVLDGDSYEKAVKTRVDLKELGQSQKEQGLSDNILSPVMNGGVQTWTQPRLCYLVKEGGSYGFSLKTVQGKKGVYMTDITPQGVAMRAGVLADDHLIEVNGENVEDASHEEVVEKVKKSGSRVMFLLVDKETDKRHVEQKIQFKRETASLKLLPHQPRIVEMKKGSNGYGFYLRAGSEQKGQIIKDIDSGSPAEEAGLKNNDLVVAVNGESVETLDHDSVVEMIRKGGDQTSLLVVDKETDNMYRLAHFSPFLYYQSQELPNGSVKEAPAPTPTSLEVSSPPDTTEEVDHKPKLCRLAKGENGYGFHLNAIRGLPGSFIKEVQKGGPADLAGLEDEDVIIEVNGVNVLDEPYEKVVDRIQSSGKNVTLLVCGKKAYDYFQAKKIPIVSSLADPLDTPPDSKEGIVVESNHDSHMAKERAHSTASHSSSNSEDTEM
The note with it: PDZ PDZK1, PDZ Domain 2, 3, 4. A digest of the protocol: as §1

The subject of experiment [9] is PDZ protein (GST-PDZ fusion). A digest of the protocol:
as §1

Experiment [10] concerns the target T9, PDZ protein (GST-PDZ fusion) (Homo sapiens, UniProt O75970).
T9 construct: made in house; host or cells: E. coli (DH5alpha, BL21 or JM109)
The settings on record: PDZ MUPP-1, PDZ Domain 10. A digest of the protocol:
as §1

Experiment [11] concerns the target T10, PDZ protein (GST-PDZ fusion) (Homo sapiens, UniProt P50479).
T10 construct: made in house; host or cells: E. coli (DH5alpha, BL21 or JM109)
T10 sequence (P50479 1-330): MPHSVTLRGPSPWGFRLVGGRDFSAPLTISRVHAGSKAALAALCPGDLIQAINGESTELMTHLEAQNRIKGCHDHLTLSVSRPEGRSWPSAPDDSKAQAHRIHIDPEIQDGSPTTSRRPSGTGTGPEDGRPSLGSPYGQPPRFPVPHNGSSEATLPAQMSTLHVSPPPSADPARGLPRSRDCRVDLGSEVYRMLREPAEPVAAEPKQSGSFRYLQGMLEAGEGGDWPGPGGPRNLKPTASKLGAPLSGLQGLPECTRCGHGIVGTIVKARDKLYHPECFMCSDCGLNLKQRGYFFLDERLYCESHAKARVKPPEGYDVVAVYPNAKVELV
The settings on record: PDZ LIM RIL, PDZ Domain 1. In short, it runs like this: as §1

Experiment [12] deals with T11, PDZ protein (GST-PDZ fusion) (Homo sapiens, UniProt Q8NI35).
T11 construct: made in house; host or cells: E. coli (DH5alpha, BL21 or JM109)
The settings on record: PDZ INADL, PDZ Domain 8. A digest of the protocol: as §1

The target in experiment [13] is T12, PDZ protein (GST-PDZ fusion) (Homo sapiens, UniProt Q07157).
T12 construct: made in house; host or cells: E. coli (DH5alpha, BL21 or JM109)
T12 sequence (Q07157 whole entry, the tested form may be a part): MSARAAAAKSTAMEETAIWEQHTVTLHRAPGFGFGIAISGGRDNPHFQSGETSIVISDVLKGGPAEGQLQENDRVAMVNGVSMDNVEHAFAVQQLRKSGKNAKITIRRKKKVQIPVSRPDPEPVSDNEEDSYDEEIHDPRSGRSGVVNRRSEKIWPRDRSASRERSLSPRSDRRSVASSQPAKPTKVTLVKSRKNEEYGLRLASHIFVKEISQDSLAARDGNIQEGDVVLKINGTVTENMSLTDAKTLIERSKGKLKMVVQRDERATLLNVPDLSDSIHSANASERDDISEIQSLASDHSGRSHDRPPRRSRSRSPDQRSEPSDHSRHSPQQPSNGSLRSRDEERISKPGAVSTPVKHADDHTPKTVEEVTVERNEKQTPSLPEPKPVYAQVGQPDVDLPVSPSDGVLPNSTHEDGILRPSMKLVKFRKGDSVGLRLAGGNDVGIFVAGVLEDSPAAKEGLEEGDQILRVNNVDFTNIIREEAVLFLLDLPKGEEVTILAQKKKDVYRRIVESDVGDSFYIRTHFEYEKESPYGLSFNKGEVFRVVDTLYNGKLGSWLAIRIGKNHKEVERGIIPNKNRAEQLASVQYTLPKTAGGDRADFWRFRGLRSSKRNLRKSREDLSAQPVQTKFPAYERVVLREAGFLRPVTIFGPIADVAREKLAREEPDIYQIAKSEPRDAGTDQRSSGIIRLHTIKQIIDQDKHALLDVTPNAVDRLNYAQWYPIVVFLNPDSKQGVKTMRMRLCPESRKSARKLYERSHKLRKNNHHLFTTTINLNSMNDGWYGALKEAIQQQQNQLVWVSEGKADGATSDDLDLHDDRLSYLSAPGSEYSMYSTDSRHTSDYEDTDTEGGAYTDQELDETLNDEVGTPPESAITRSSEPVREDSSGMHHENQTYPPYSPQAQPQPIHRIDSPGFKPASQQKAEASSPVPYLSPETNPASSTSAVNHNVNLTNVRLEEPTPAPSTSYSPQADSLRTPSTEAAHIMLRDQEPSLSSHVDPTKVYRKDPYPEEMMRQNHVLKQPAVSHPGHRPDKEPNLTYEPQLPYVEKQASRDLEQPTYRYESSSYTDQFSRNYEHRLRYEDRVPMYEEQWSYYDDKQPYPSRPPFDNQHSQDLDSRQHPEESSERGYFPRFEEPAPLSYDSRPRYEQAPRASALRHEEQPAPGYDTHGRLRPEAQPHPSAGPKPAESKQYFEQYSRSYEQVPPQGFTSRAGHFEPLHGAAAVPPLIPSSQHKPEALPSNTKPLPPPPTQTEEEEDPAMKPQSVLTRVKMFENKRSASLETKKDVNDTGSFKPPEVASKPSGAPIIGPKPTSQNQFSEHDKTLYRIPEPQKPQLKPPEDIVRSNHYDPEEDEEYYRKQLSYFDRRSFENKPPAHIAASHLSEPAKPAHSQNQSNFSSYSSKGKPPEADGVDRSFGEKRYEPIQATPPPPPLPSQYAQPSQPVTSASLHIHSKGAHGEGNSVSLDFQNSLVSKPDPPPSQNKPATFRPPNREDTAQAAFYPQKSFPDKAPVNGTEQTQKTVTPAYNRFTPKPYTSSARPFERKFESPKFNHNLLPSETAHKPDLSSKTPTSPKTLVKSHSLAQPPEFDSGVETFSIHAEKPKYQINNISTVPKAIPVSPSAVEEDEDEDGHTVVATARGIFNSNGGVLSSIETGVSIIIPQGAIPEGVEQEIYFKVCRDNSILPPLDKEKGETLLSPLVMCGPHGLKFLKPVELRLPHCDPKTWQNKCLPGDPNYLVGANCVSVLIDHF
In short, it runs like this: as §1

The target of experiment [14] is T13, PDZ protein (GST-PDZ fusion) (Homo sapiens, UniProt Q9P202).
T13 construct: made in house; host or cells: E. coli (DH5alpha, BL21 or JM109)
T13 sequence (Q9P202 1-907): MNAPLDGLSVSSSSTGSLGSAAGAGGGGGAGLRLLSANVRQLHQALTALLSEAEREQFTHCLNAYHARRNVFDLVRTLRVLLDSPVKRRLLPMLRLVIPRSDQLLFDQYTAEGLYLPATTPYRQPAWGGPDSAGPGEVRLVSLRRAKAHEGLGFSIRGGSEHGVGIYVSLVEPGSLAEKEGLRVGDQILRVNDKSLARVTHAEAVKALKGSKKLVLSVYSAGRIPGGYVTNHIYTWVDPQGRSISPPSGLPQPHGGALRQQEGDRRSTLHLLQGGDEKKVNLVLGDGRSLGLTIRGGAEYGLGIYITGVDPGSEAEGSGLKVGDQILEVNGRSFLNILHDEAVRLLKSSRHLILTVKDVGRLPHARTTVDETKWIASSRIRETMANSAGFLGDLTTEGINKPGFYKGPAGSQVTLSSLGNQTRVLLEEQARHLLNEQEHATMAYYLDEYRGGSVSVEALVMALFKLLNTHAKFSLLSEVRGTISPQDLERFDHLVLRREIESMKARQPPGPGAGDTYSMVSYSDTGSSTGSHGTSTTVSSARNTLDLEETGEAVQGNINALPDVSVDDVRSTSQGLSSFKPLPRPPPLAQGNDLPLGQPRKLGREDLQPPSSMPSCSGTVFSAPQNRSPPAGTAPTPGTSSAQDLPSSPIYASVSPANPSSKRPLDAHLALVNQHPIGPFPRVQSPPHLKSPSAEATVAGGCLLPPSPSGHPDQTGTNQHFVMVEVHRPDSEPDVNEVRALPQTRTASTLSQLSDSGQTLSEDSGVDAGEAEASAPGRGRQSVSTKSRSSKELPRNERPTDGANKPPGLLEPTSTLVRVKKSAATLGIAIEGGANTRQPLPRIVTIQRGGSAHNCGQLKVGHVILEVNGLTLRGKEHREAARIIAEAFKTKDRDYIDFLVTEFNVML
The settings on record: PDZ KIAA1526, PDZ Domain 1. In short, it runs like this:
as §1

Experiment [15] concerns the target T14, PDZ protein (GST-PDZ fusion) (Homo sapiens, UniProt Q9UDY2).
T14 construct: made in house; host or cells: E. coli (DH5alpha, BL21 or JM109)
T14 sequence (Q9UDY2 1-1190): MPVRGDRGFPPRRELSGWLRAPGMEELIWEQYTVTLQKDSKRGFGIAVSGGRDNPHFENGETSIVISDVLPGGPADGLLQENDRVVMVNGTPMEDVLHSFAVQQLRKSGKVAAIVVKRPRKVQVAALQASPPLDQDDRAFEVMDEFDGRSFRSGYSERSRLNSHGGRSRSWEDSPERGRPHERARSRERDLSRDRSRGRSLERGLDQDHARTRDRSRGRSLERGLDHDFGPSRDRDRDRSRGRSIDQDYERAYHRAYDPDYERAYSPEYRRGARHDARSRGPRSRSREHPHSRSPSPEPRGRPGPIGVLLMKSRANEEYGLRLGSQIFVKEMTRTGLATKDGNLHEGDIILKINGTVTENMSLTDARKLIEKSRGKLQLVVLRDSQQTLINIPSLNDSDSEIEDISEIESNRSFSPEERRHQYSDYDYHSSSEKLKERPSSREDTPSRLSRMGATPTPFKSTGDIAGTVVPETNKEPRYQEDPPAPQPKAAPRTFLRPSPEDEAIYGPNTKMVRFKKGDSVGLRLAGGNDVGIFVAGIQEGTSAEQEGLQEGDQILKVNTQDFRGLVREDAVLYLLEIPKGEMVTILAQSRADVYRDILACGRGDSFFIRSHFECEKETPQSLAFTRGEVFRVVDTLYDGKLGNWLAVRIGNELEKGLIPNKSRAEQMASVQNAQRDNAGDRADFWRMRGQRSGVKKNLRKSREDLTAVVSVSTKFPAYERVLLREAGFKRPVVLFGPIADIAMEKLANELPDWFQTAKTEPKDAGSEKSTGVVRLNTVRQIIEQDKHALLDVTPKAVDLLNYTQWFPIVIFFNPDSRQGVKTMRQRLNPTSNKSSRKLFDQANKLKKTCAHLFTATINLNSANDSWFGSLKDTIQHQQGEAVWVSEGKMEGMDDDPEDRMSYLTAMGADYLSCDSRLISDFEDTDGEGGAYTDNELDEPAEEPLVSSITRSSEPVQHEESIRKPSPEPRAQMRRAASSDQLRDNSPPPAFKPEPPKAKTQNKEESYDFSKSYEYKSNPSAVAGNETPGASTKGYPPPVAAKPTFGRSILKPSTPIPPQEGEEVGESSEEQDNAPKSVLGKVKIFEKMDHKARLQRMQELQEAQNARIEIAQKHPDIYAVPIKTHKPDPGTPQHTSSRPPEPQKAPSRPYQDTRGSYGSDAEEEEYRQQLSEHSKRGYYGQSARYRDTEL
The settings on record: PDZ ZO-2, PDZ Domain 2. A digest of the protocol:
as §1

Ends that are not written are not given here. * marks the point of attachment. Biotin = O=C1N[C@H]2[C@H](CS[C@H]2CCCCC(=O)*)N1

T2 sequence (O15085 whole entry, the tested form may be a part): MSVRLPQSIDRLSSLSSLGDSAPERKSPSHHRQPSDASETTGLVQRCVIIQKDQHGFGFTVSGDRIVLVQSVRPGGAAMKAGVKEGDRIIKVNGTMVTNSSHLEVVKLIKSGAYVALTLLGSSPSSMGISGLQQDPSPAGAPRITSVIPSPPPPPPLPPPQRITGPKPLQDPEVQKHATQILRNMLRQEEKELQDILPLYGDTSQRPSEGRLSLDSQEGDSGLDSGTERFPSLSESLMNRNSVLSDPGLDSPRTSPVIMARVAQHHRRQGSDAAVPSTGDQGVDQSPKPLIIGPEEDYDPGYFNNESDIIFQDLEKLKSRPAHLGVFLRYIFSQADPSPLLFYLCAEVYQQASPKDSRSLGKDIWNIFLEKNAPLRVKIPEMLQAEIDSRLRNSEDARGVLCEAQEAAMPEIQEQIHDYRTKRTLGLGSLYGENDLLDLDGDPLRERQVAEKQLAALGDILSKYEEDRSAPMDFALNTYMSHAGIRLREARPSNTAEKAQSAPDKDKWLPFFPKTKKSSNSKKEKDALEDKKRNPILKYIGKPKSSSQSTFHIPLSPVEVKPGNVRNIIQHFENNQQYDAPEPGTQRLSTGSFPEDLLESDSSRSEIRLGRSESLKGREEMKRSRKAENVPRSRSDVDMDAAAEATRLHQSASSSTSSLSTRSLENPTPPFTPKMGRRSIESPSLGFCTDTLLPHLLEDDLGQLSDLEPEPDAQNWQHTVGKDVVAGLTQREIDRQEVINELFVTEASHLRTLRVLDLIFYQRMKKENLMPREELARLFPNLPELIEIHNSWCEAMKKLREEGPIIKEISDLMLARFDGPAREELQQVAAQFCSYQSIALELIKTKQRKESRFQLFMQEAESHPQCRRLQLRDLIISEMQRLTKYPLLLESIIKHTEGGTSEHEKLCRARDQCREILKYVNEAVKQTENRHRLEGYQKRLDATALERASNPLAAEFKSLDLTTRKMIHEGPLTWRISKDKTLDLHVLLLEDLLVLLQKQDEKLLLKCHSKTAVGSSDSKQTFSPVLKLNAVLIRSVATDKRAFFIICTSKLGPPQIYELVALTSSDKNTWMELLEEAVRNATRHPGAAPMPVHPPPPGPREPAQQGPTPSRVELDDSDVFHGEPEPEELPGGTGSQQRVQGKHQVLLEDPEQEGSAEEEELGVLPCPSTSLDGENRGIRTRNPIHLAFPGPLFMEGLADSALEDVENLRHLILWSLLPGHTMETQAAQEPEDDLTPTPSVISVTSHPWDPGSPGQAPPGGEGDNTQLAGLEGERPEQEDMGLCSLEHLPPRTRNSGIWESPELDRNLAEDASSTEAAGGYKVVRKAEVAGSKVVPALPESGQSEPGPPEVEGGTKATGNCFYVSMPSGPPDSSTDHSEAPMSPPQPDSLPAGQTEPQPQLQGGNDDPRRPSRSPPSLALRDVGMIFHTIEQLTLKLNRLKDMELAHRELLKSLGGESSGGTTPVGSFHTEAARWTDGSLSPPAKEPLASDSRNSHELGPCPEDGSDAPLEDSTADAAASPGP

Consider “SSKSKSSEESQTFFGLYKL (Biotin-SSKSKSSEESQTFFGLYKL) [Fas Ligand]”, for which the Classification was 2 (A450 nm 1-2) in [1]; 3 (A450 nm 2-3) in experiment [2]; 4 (A450 nm 3-4) in experiment [3] (PDZ Mint 1, PDZ Domain 1, 2); 2 (A450 nm 1-2) in experiment [4]; 5 (A450 nm of 4 more than 2× repeated) in experiment [5] (PDZ KIAA807); 5 (A450 nm of 4 more than 2× repeated) in [5] (PDZ KIAA0807(S), PDZ Domain 1). For the same substance, the Classification in experiment [6] is 2 (A450 nm 1-2).

On to SSR4_HUMAN (EALQPEPGRKRIPLTRTTTF), for which the Classification in experiment [3] (PDZ Mint 1, PDZ Domain 1, 2) is listed as 1 (A450 nm 0-1); in experiment [7], 1 (A450 nm 0-1); in [8], 1 (A450 nm 0-1); in experiment [5] (PDZ KIAA807) it was 1 (A450 nm 0-1); in [9] (PDZ BAI-1, PDZ Domain 4), 1 (A450 nm 0-1); in [9] (PDZ BAI-1, PDZ Domain 5) it was 1 (A450 nm 0-1).

For the substance “INSVGSTASSSQPLLVHDDV (Biotin-INSVGSTASSSQPLLVHDDV) [c-kit receptor]”, the Classification was 1 (A450 nm 0-1) in experiment [10]; 1 (A450 nm 0-1) in experiment [11]; 1 (A450 nm 0-1) in experiment [3] (PDZ Mint 1, PDZ Domain 2); 1 (A450 nm 0-1) in [12].

Turning to “TEGNESSEATSPVNAIYSLA (Biotin-TEGNESSEATSPVNAIYSLA) [neurofascin (chicken)]”, the Classification in [13] (PDZ ZO-1, PDZ Domain 1) is listed as 1 (A450 nm 0-1); in experiment [13] (PDZ ZO-1, PDZ Domain 2), 1 (A450 nm 0-1); in [14], 1 (A450 nm 0-1); in experiment [15], 1 (A450 nm 0-1).
